These results are taken from US20250092426, “CAS ENDONUCLEASES AND RELATED METHODS” (Flagship Pioneering Innovations VII, LLC, published 2025).

The target of the data set is T1, CasEnd-1 (synthetic construct).
T1 chain: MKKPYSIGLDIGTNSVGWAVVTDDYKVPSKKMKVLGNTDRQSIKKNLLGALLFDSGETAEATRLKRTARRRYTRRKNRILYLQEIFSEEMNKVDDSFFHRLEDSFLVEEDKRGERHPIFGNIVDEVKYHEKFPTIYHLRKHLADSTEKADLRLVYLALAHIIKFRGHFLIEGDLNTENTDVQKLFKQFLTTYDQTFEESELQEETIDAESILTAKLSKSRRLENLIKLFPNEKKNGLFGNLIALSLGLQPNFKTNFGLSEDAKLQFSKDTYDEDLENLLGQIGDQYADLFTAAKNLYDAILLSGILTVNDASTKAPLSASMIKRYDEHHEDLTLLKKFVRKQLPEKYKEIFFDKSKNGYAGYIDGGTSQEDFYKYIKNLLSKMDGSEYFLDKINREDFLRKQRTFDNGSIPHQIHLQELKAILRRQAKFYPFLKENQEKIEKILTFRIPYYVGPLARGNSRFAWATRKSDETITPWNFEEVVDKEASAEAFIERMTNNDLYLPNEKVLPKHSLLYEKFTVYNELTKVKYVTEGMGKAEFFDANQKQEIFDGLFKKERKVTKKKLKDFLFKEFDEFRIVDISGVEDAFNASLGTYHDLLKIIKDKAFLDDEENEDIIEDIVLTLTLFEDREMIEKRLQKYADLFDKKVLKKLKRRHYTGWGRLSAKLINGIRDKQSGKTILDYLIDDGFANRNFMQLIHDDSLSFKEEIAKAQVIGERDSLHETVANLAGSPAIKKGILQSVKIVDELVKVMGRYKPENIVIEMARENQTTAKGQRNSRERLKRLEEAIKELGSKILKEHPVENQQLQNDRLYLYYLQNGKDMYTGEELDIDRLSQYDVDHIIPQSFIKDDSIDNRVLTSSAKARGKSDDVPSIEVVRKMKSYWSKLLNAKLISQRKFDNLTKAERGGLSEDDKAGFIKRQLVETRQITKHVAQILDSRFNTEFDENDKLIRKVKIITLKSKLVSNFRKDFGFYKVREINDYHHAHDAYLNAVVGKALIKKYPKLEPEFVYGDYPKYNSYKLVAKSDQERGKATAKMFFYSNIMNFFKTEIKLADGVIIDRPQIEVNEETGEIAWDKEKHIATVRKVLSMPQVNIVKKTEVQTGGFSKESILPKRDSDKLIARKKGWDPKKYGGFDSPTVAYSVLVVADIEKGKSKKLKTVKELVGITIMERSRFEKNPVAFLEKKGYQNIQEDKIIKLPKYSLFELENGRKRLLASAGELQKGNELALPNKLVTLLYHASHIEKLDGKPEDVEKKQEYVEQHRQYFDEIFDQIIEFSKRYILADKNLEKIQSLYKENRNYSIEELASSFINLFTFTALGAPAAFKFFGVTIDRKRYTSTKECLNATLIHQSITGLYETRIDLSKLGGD
Nature of the data set: cell_activity; +++; HEK293T; PAM not stated. The procedure, abridged:
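Editing activity was scored as the fraction of GFP+ cells on day 4 by flow cytometry. BFP-expressing HEK293T cells (250,000) received by nucleofection 200 ng plasmid for the RT-Cas fusion protein and 200 ng template RNA plasmid designed to convert BFP to GFP.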

Some results are limits rather than exact numbers.

B1: BFP-to-GFP template RNA ; BFP reporter protospacer (ssRNA ; dsDNA)
RNA: GCCGAAGCACUGCACGCCGUGUUUUAGAGCUAGAAAUAGCAAGUUAAAAUAAGGCUAGUCCGUUAUCAACUUGAAAAAGUGGCACCGAGUCGGUGCACCCUGACGUACGGCGUGCAGUGCUU
DNA 1: GCCGAAGCACTGCACGCCGT
DNA 2: ACGGCGTGCAGTGCTTCGGC
As to B1, the activity is ≥ 100 % of reference.
